One experiment deals with mouse EGFR (mouse, UniProt Q01279 25-647, limits assumed). Description: SPR Biacore. For orientation: SPR reads the build-up and loss of mass on a sensor chip optically.
The target of the next experiment is monkey EGFR (monkey). Description: SPR Biacore.
In the next experiment the target is rat EGFR (rat, UniProt A0ABK0LZB0 35-1214). Description: SPR Biacore.
Experiment [1] has as its target T1, EGFR on the surface of human tumour cells (A431, H292) (human, UniProt P00533 25-1210).
T1 construct: whole, on cells; also called EGF receptor

Experiment [2] concerns the target T1, EGFR on the surface of human tumour …. Nature of the experiment: cell-based or functional assay.
In experiment [3] the target is T2, IGF1R-Fc (extracellular domain of human IGF1R aa 1-932 fused to hinge and constant regions of human IgG1) (human, UniProt P08069 31-932).
T2 construct: range 1-932; made in house by transient transfection, purified on Protein A; also called IGF-IR-Fc; not shown: hinge and constant regions of human IgG1

For experiment [4], the target named is T3, Recombinant human EGFR-Fc (aa 1-645 of the extracellular domain of human EGFR fused to human Fc) (human, UniProt P00533 25-645).
T3 construct: range 1-645; bought from R&D Systems; also called EGFR645-Fc; EGFR-Fc (HER-1); not shown: human Fc

In experiment [5] the target is T1, EGFR on the surface of human tumour …. Description: cell-based or functional assay. This is another data set of the same source.
For experiment [6], the target named is T4, IGF-IR on human tumour cells (H292, MCF-7, RH41) (human, UniProt P08069 31-1367). Nature of the experiment: cell-based or functional assay.
In experiment [7] the target is T1, EGFR on the surface of human tumour …. The source holds these as a separate data set.
Experiment [8] has as its target T3, Recombinant human EGFR-Fc (aa 1-645 of …). This is another data set of the same source.
The target in experiment [9] is T1, EGFR on the surface of human tumour …. This is another data set of the same source.
For experiment [10], the target named is T3, Recombinant human EGFR-Fc (aa 1-645 of …). This is another data set of the same source.
The target in experiment [11] is T1, EGFR on the surface of human tumour …. Description: cell-based or functional assay. The source holds these as a separate data set.
The target of experiment [12] is T4, IGF-IR on human tumour cells (H292, …). Description: cell-based or functional assay. The source holds these as a separate data set.
Experiment [13] deals with T2, IGF1R-Fc (extracellular domain of human …). The source holds these as a separate data set.
Experiment [14] deals with T1, EGFR on the surface of human tumour …. Description: cell-based or functional assay. This is another data set of the same source.
Experiment [15] addresses T4, IGF-IR on human tumour cells (H292, …). Description: cell-based or functional assay. The source holds these as a separate data set.
In experiment [16] the target is T2, IGF1R-Fc (extracellular domain of human …). The source holds these as a separate data set.

Where “and” joins values, the source holds several entries; their conditions need not be identical. Identical values can stand only once. Like-named read-outs stand apart in the source and are kept apart here.

In general, Kd refers to the equilibrium constant for the complex coming apart. A word on the IC50: it is the concentration needed to halve the response being measured. The koff is the rate constant with which the complex falls apart. In general, kon refers to the rate constant with which the complex forms.

B1: I1-GS10-E4 pegylated, His-tagged (designed binder)
chain: MGVSDVPRDLEVVAATPTSLLISWSARLKVARYYRITYGETGGNSPVQEFTVPKNVYTATISGLKPGVDYTITVYAVTRFRDYQPISINYRTEIDKGSGSGSGSGSGSGSGSGSGSVSDVPRDLEVVAATPTSLLISWHERDGSRQYYRITYGETGGNSPVQEFTVPGGVRTATISGLKPGVDYTITVYAVTDYFNPTTHEYIYQTTPISINYRTEIDKPCQHHHHHH
modifications: 40 kDa branched PEG on the Cys of the C-terminal Cys tail
Take B1: the Kd with mouse EGFR is 5.5 nM; with monkey EGFR, 3.9 nM; with rat EGFR, 3.7 nM; in experiment [3], 0.46 nM; in [4], 3.63 nM. This molecule also displayed an IC50 in experiment [1] of 38.1 nM. Also, the “H292 colony formation assay IC50” value in [2] is 6 nM. In experiment [5], the “IC50, EGF-induced EGFR phosphorylation, A431 cells, In Cell Western” value amounted to 12 nM. Moreover, in [5], the “IC50, EGF-induced ERK phosphorylation, A431 cells, In Cell Western” value came out at 13 nM. In addition, the “IC50, EGF-stimulated EGFR phosphorylation, H292 cells, ELISA” value in experiment [5] was 4 nM. Also, the “IC50, IGF1-stimulated IGFR phosphorylation, H292 cells, ELISA” value in experiment [6] stood at 0.2 nM.

B2: E4-GS10-I1 pegylated, His-tagged (designed binder)
chain: MGVSDVPRDLEVVAATPTSLLISWHERDGSRQYYRITYGETGGNSPVQEFTVPGGVRTATISGLKPGVDYTITVYAVTDYFNPTTHEYIYQTTPISINYRTEIDKGSGSGSGSGSGSGSGSGSGSVSDVPRDLEVVAATPTSLLISWSARLKVARYYRITYGETGGNSPVQEFTVPKNVYTATISGLKPGVDYTITVYAVTRFRDYQPISINYRTEIDKPCQHHHHHH
modifications: 40 kDa branched PEG on the Cys of the C-terminal Cys tail
notes: also called E4-GS10-I1 (with Peg)
On to B2, for which the Kd amounted to 6.9 nM in the experiment with mouse EGFR; 5.7 nM in the experiment with monkey EGFR; 5.6 nM with rat EGFR; 0.77 nM in experiment [3]; 4.77 nM in experiment [4]. In [1], this molecule yielded an IC50 of 19.5 nM. Besides, the “H292 colony formation assay IC50” value in experiment [2] is 5 nM. In addition, the “IC50, EGF-induced EGFR phosphorylation, A431 cells, In Cell Western” value in experiment [5] was 12 nM. Besides, the “IC50, EGF-induced ERK phosphorylation, A431 cells, In Cell Western” value in [5] is 12 nM. For the same molecule, in experiment [5], the “IC50, EGF-stimulated EGFR phosphorylation, H292 cells, ELISA” value was found to be 1.3 nM. Besides, the “IC50, IGF1-stimulated IGFR phosphorylation, H292 cells, ELISA” value in experiment [6] came to 0.4 nM.

B3: E1-GS10-I1, His-tagged, non-pegylated (designed binder)
chain: MGVSDVPRDLEVVAATPTSLLISWVAGAEDYQYYRITYGETGGNSPVQEFTVPHDLVTATISGLKPGVDYTITVYAVTDMMHVEYTEHPISINYRTEIDKGSGSGSGSGSGSGSGSGSGSVSDVPRDLEVVAATPTSLLISWSARLKVARYYRITYGETGGNSPVQEFTVPKNVYTATISGLKPGVDYTITVYAVTRFRDYQPISINYRTEIDKPSQHHHHHH
notes: bispecific EGFR/IGF-IR tandem of two 10Fn3 domains
Molecule B3 had an IC50 in [7] of 14.6 nM. Further, in experiment [8], the Kd is 3.8 nM. In [9], this molecule came in with an IC50 of 51 nM. Besides, in [10], the Kd was 10.2 nM and 7.53 nM; the koff is 0.000389 s⁻¹ and 0.000474 s⁻¹; the kon is 38200 M⁻¹ s⁻¹ and 62900 M⁻¹ s⁻¹. Also, the “inhibition of EGF-stimulated EGFR phosphorylation (Y1068), H292 cells, ELISA, IC50” value in experiment [11] was 20 nM. In addition, in experiment [12], the “inhibition of IGF1-stimulated IGF1R phosphorylation (Y1131), H292 cells, ELISA, IC50” value turned out to be 4 nM and the “inhibition of RH41 cell proliferation, IC50” value was 9 nM. The affinity in experiment [13], expressed as Kd, was 0.8 nM. For the same molecule, in experiment [14], the “A431 pEGFR IC50 (In-Cell Western)” value turned out to be 36 nM, the “A431 pERK IC50 (In-Cell Western)” value came to 51 nM and the “H292 pEGFR IC50 (ELISA)” value amounted to 30 nM. Moreover, the “H292 pIGF-IR IC50 (ELISA)” value in experiment [15] was determined as 1 nM. For the same molecule, in experiment [16], the Kd came out at 0.66 nM, the koff was 0.000338 s⁻¹ and the kon came out at 513000 M⁻¹ s⁻¹.

The values are drawn from US20180037631A1 (Bristol-Myers Squibb, published 2018).
